{"source": "patent US20240115719A1", "about": "“COMPOUND OR SALT THEREOF, AND ANTIBODY OBTAINED BY USING THE SAME” (priority 2021, published 2024)", "data": [{"assay": "Stability test of ADC mimic in rat plasma (eliminated fluorescent molecules by HPLC/fluorescence detection)", "assay_type": "in vitro ADME", "settings": "ADC mimic 0.1 mg/mL, 37° C. for 4 days vs -80° C. (Day 0 = 100%)", "description": "Blood stability of various ADC mimics was assessed by analyzing the amounts of fluorescent molecules that were reduced from ADC mimic when ADC mimic was incubated in rat blood as described below.\nSterile filtration was performed on 700 μL of rat plasma (Charles River) after ADC mimic was added to it so as to be 0.1 mg/mL. The solution was dispensed into six Eppen tubes in 50 μL portions. Three of the six samples were stored in an incubator set at 37° C. for 4 days. The remaining three were also stored in a −80° C. freezer for 4 days. 100 μL of acetonitrile was added to each sample, and the mixture was vortexed and centrifuged to obtain a precipitate. The resulting supernatant was collected and analyzed by HPLC.\nThe determination was made using a liquid chromatography/fluorescence detection method to determine the amount of fluorescence molecules that had eliminated from ADC mimic.\nA lower rate of increase indicates higher stability in plasma.\nIncrease in fluorescence intensity of fluorescent molecules eliminated from Example ADC mimic=[(Day=4 fluorescence intensity)−(Day=0 fluorescence intensity)].\nIncrease in fluorescence intensity of fluorescent molecules eliminated from Control ADC mimic=[(Day=4 fluorescence intensity)−(Day=0 fluorescence intensity)].\nCarboxyrhodamine 110-PEG4-DBCO was separately used to calculate the colleration between area-area of fluorescent intensity and concentration for HPLC. An increase in the fluorescent intensity of the respective ADC mimic was converted into a concentration by using the calculation equation. When the concentration of Day 0 was taken as 100%, the percentage of the concentration of the above increase was calculated as the elimination rate.", "units": {"Elimination rate of fluorescence molecule at Day = 4": "%"}, "values": [{"smiles": "CCCNC(=O)CC[C@H](NC(=O)CCCCN=[N+]=[N-])C(=O)NO", "note": "[compound 96]", "Elimination rate of fluorescence molecule at Day = 4": "<3"}, {"smiles": "CCCNC(=O)C[C@H](NC(=O)CCCCN=[N+]=[N-])C(=O)NO", "note": "[compound 111]", "Elimination rate of fluorescence molecule at Day = 4": 21}, {"smiles": "CCCNC(=O)c1cc(N=[N+]=[N-])cc(C(=O)NO)c1", "note": "[compound 93]", "Elimination rate of fluorescence molecule at Day = 4": "<3"}, {"smiles": "CCCNC(=O)CC[C@H](NC(=O)CCCCN=[N+]=[N-])C(=O)NOC", "note": "[compound 101]", "Elimination rate of fluorescence molecule at Day = 4": "<3"}, {"smiles": "CCCNC(=O)C[C@H](NC(=O)COCCOCCOCCN=[N+]=[N-])C(=O)NO", "note": "[compound 107]", "Elimination rate of fluorescence molecule at Day = 4": 20}, {"smiles": "CCNC(=O)CC[C@H](NC(=O)CCCCN=[N+]=[N-])C(=O)NOC", "note": "[compound 102]", "Elimination rate of fluorescence molecule at Day = 4": "<3"}]}]}
